We go through one molecule from publication PMC9120461, “Structural insights into the mechanism of pancreatic KATP channel regulation by nucleotides” (Nature Communications, 2022).

Data set [1] deals with the molecule itself. Description: cryo-EM structure; purified H175K_(cryo-EM) fusion protein (13.5 uM octamer) in TBS (20 mM Tris-HCl pH 7.5, 150 mM NaCl) with 0.1% digitonin, with 5 mM MgCl2, 0.5 mM ADP, 0.5 mM NN414 and 10 uM PI(4,5)P2diC8; closed and pre-open states resolved in the same sample.
In data set [2] the target is T1, SUR1 from Mesocricetus auratus (maSUR1), as the SUR1 part of H175K_(cryo-EM) (Mesocricetus auratus, UniProt A0A1U7R319 1-1582).
T1 construct: SUR1 from Mesocricetus auratus (maSUR1); In the assay it stood on one chain with Kir6.2 H175K: its C terminus is joined to the 41-residue linker and the Prescission site; also called SUR1 subunit; source: purified in digitonin (Streptactin 4FF resin, Superose 6 increase)
T1 sequence (A0A1U7R319 entry or part of it H175K H175K): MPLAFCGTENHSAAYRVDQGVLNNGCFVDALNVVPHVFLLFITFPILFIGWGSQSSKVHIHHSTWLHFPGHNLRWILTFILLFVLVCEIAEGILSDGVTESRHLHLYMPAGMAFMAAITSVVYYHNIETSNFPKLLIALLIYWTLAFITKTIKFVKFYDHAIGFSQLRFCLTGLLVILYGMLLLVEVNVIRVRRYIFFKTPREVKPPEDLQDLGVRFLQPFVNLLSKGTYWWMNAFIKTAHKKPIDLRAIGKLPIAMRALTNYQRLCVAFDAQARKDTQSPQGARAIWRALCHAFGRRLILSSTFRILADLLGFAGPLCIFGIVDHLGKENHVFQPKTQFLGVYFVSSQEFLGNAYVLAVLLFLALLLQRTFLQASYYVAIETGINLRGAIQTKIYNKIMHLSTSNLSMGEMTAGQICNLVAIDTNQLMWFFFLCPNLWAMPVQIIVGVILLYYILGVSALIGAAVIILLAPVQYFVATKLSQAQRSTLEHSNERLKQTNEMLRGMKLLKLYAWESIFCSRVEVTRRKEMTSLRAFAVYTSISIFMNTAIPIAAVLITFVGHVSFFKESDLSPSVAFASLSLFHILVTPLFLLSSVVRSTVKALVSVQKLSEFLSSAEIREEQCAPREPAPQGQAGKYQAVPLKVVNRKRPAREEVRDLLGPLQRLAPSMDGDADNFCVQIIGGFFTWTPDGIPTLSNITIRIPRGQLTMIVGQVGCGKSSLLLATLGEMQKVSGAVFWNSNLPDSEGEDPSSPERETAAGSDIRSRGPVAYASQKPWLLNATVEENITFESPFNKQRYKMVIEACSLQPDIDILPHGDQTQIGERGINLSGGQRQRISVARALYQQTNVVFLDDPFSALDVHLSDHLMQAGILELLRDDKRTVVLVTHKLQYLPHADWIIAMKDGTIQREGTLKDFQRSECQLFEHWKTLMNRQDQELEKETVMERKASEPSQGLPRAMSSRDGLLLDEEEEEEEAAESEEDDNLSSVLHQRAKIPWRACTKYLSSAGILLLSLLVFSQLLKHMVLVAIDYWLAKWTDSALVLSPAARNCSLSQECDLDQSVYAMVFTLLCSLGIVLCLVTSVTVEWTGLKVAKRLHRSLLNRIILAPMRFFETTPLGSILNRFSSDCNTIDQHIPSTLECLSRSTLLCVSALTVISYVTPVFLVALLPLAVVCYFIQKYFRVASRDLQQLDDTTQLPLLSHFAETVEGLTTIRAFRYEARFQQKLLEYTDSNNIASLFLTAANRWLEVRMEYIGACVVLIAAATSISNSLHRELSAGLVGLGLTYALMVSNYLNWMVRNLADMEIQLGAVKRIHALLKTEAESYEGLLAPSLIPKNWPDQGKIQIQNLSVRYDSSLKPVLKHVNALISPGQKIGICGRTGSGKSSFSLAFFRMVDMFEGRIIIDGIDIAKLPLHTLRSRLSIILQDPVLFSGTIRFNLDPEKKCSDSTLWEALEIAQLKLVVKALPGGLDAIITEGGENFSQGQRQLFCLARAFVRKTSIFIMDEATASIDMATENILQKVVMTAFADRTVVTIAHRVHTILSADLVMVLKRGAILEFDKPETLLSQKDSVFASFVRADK
Described as above. The settings on record: both partners purified.

B1: Kir6.2 from Mus musculus (mmKir6.2) H175K mutant, as the Kir6.2 part of H175K_(cryo-EM) (natural protein, UniProt Q61743 2-390, looked up)
chain: LSRKGIIPEEYVLTRLAEDPAEPRYRTRERRARFVSKKGNCNVAHKNIREQGRFLQDVFTTLVDLKWPHTLLIFTMSFLCSWLLFAMVWWLIAFAHGDLAPGEGTNVPCVTSIHSFSSAFLFSIEVQVTIGFGGRMVTEECPLAILILIVQNIVGLMINAIMLGCIFMKTAQAKRRAETLIFSKHAVITLRHGRLCFMLRVGDLRKSMIISATIHMQVVRKTTSPEGEVVPLHQVDIPMENGVGGNGIFLVAPLIIYHVIDSNSPLYDLAPSDLHHHQDLEIIVILEGVVETTGITTQARTSYLADEILWGQRFVPIVAEEDGRYSVDYSKFGNTIKVPTPLCTARQLDEDRSLLDALTLASSRGPLRKRSVAVAKAKPKFSISPDSLS
notes: Kir6.2 from Mus musculus (mmKir6.2), first Met removed, H175K mutant; In the assay it stood on one chain with SUR1: its N terminus is joined to the Prescission site and the 41-residue linker after SUR1; source: purified in digitonin (Streptactin 4FF resin, Superose 6 increase)
As for B1, the binding result in data set [1] and in data set [2] was “binds” in each case.
